Two molecules from patent publication US5602009, “Dominant negative chimeras of the steroid/thyroid superfamily of receptors” (The Salk Institute for Biological Studies) can be followed below.

Data set [1] relates to glucocorticoid receptor (hGR) (Homo sapiens). Kind of data set: cell_activity. To be noted: dexamethasone 1e-7 M, MTV-Luc in CV-1.
For data set [2], the target named is T1, retinoic acid receptor alpha (RARalpha) (UniProt P10276 P10276:1-462).
T1 sequence: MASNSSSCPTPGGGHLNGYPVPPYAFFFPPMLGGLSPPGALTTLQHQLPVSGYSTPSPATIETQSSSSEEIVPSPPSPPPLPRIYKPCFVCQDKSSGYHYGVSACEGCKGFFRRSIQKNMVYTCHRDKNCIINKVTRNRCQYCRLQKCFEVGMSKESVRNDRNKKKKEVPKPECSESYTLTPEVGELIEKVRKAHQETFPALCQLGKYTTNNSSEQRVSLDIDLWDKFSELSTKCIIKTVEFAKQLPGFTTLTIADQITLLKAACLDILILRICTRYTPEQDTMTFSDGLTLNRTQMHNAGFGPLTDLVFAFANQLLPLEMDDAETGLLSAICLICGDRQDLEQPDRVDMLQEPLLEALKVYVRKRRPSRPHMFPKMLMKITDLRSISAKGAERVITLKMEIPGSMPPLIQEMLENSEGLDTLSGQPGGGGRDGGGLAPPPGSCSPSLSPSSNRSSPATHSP
Nature of the data set: cell_activity; 100 nM RA, delta-MTV-TREp-CAT in CV-1.

For data set [3], the target named is T2, thyroid hormone receptor alpha (rTRalpha) (Rattus norvegicus, UniProt P63059-2 P63059-2:1-410).
T2 sequence: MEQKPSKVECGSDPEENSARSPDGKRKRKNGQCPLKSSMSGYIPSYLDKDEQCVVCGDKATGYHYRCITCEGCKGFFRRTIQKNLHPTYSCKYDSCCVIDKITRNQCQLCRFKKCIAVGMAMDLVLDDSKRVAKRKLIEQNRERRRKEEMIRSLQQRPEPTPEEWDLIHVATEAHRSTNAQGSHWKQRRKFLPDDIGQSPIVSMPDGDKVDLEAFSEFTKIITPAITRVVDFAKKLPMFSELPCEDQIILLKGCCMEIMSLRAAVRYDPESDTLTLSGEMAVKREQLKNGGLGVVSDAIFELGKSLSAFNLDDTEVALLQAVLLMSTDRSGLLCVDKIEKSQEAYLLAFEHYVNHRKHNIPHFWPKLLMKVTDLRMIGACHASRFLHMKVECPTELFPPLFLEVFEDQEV
Nature of the data set: cell_activity; T3 100 nM stimulation of tk-TREp-CAT in CV-1; 80% decrease of basal activity without hormone. To be noted: tags: RSV expression vector RS-rTRalpha in CV-1 cells.

As for “mouse mammary tumor virus (MTV) promoter”, the activity in data set [1] came out at 3000 fold.

B1: TREp palindromic thyroid response element (dsDNA)
DNA 1: TCAGGTCATGACCTGA
DNA 2: TCAGGTCATGACCTGA
B1: the activity was 25 fold in data set [2] and 20 fold in data set [3].
